Reference: US20240270846A1 (published 2024)
Residue numbers refer to the chain shown, from its start. In names and notes the source's numbering stands.

B1: GLS3000 N28F one-arm antibody (H chain CE115HA000) (antibody, human IgG1, kappa, L234A L235A, N297A, name in Kabat numbering)
heavy: QVQLVESGGGVVQPGRSLRLSCAASGFTFSNAWMHWVRQAPGKGLEWVAQIKAKSNNYATYYAESVKGRFTISRDDSKNSLYLQMNSLKTEDTAVYYCRYVHYGAYYGVDAWGQGTTVTVSSASTKGPSVFPLAPSSKSTSGGTAALGCLVKDYFPEPVTVSWNSGALTSGVHTFPAVLQSSGLYSLSSVVTVPSSSLGTQTYICNVNHKPSNTKVDKKVEPKSCDKTHTCPPCPAPEAAGGPSVFLFPPKPKDTLMISRTPEVTCVVVDVSHEDPEVKFNWYVDGVEVHNAKTKPREEQYASTYRVVSVLTVLHQDWLNGKEYKCKVSNKALPAPIEKTISKAKGQPREPQVYTLPPSRCELTKNQVSLSCAVKGFYPSDIAVEWESNGQPENNYKTTPPVLDSDGSFFLVSKLTVDKSRWQQGNVFSCSVMHEALHNHYTQKSLSLSPDYKDDDDK
chain: EPKSSDKTHTCPPCPAPELLGGPSVFLFPPKPKDTLMISRTPEVTCVVVDVSHEDPEVKFNWYVDGVEVHNAKTKPREEQYNSTYRVVSVLTVLHQDWLNGKEYKCKVSNKALPAPIEKTISKAKGQPREPQVCTLPPSRDELTKNQVSLWCLVKGFYPSDIAVEWESNGQPENNYKTTPPVLDSDGSFFLYSKLTVDKSRWQQGNVFSCSVMHEALHNRYTQKSLSLSP
light: DIVMTQSPLSLPVTPGEPASISCRSSQSLVHSFRNTYLHWYQQKPGQAPRLLIYKVSNRFSGVPDRFSGSGSGTDFTLKISRVEAEDVGVYYCGQGTQVPYTFGQGTKLEIKRTVAAPSVFIFPPSDEQLKSGTASVVCLLNNFYPREAKVQWKVDNALQSGNSQESVTEQDSKDSTYSLSSTLTLSKADYEKHKVYACEVTHQGLSSPVTKSFNRGEC
notes: one-arm antibody
B2: GLS3000 N28G one-arm antibody (H chain CE115HA000) (antibody, human IgG1, kappa, L234A L235A, N297A, name in Kabat numbering)
heavy: B1 heavy
chain: B1 chain
light: B1 light with F33G
notes: one-arm antibody
B3: GLS3000 N28K one-arm antibody (H chain CE115HA000) (antibody, human IgG1, kappa, L234A L235A, N297A, name in Kabat numbering)
heavy: B1 heavy
chain: B1 chain
light: B1 light with F33K
notes: one-arm antibody
B4: GLS3000 N28H one-arm antibody (H chain CE115HA000) (antibody, human IgG1, kappa, L234A L235A, N297A, name in Kabat numbering)
heavy: B1 heavy
chain: B1 chain
light: B1 light with F33H
notes: one-arm antibody
B5: GLS3000 N28Q one-arm antibody (H chain CE115HA000) (antibody, human IgG1, kappa, L234A L235A, N297A, name in Kabat numbering)
heavy: B1 heavy
chain: B1 chain
light: B1 light with F33Q
notes: one-arm antibody
B6: GLS3000 N28P one-arm antibody (H chain CE115HA000) (antibody, human IgG1, kappa, L234A L235A, N297A, name in Kabat numbering)
heavy: B1 heavy
chain: B1 chain
light: B1 light with F33P
notes: one-arm antibody
B7: GLS3000 N28L one-arm antibody (H chain CE115HA000) (antibody, human IgG1, kappa, L234A L235A, N297A, name in Kabat numbering)
heavy: B1 heavy
chain: B1 chain
light: B1 light with F33L
notes: one-arm antibody
B8: GLS3000 N28S one-arm antibody (H chain CE115HA000) (antibody, human IgG1, kappa, L234A L235A, N297A, name in Kabat numbering)
heavy: B1 heavy
chain: B1 chain
light: B1 light with F33S
notes: one-arm antibody
B9: GLS3000 N28M one-arm antibody (H chain CE115HA000) (antibody, human IgG1, kappa, L234A L235A, N297A, name in Kabat numbering)
heavy: B1 heavy
chain: B1 chain
light: B1 light with F33M
notes: one-arm antibody
B10: GLS3000 N28I one-arm antibody (H chain CE115HA000) (antibody, human IgG1, kappa, L234A L235A, N297A, name in Kabat numbering)
heavy: B1 heavy
chain: B1 chain
light: B1 light with F33I
notes: one-arm antibody

These binders were tested against T1, CD3 epsilon homodimer protein (UniProt P07766 23-126) (assay: SPR, CD3e homodimer on chip;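 further: surface plasmon resonance at 25 degrees C, antibodies flowed as analyte over CD3 epsilon homodimer amine-coupled to a CM4 chip, running buffer HBS-EP+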).
T1 construct: also called CD3 (CD3 epsilon)
T1 sequence (P07766 23-126): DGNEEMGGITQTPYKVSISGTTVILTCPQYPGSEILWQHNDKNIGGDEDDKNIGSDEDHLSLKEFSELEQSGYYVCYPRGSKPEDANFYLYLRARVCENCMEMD

Row | ratio of amounts bound (altered form / unaltered GLS3000 antibody) | Binder
1 | 0.46 | B1
2 | 0.46 | B2
3 | 0.44 | B3
4 | 0.42 | B4
5 | 0.37 | B5
6 | 0.36 | B6
7 | 0.39 | B7
8 | 0.32 | B8
9 | 0.39 | B9
10 | 0.44 | B10
